From paper PMC4981287

Tests used:
[1] = biological target: HiLyteFluor488-labeled amyloid-β(1-40) oligomers formed from the disaggregation of fibrils (UniProt P05067); test: confocal two-color coincidence detection
[2] = biological target: HiLyteFluor488-labeled amyloid-β(1-40) fibrils (UniProt P05067); test: confocal two-color coincidence detection
[3] = biological target: HiLyteFluor488-labeled amyloid-β(1-40) fibrils (UniProt P05067)

Chain of HiLyteFluor488-labeled amyloid-β(1-40) oligomers formed from the disaggregation of fibrils (P05067 672-711): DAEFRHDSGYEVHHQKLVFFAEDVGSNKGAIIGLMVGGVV
Chain of HiLyteFluor488-labeled amyloid-β(1-40) fibrils (P05067 672-711): as above

“AlexaFluor647-labeled αB-crystallin (from UniProt P02511 1-175) (natural protein)” was tested, and the half-time for dissociation [1] was 17 h, the stoichiometry N (αB-crystallin molecule per Aβ monomer) [1] was 1 and the koff [2] was 4.4e-05 s⁻¹. It also gave a Kd [3] of 1200 nM.
